Experimental data reported in PMC6824560, “Insight into the relationship between aryl-hydrocarbon receptor and β-catenin in human colon cancer cells” (PLoS ONE, 2019).

Biological target: T1, human Arnt fused to Gal4 DNA-binding domain in pGBKT7 (human, UniProt P27540 1-789)
T1 construct: Arnt, human cDNA; This fusion alone induces the reporter; also called pGBK-Arnt; source: yeast two-hybrid fusion, yeast strain Y187
Assay: two-hybrid; yeast two-hybrid in strain Y187, pGADT7 and pGBKT7 fusions, 1 μM 3MC or 0.1% DMSO for 12 h at 30°C, β-galactosidase read-out (o-nitrophenol-β-D-galactopyranoside); DDB1 or CUL4B co-expressed from pESC in some samples
Details: partners not purified

T1 sequence (P27540 whole entry, the tested form may be a part): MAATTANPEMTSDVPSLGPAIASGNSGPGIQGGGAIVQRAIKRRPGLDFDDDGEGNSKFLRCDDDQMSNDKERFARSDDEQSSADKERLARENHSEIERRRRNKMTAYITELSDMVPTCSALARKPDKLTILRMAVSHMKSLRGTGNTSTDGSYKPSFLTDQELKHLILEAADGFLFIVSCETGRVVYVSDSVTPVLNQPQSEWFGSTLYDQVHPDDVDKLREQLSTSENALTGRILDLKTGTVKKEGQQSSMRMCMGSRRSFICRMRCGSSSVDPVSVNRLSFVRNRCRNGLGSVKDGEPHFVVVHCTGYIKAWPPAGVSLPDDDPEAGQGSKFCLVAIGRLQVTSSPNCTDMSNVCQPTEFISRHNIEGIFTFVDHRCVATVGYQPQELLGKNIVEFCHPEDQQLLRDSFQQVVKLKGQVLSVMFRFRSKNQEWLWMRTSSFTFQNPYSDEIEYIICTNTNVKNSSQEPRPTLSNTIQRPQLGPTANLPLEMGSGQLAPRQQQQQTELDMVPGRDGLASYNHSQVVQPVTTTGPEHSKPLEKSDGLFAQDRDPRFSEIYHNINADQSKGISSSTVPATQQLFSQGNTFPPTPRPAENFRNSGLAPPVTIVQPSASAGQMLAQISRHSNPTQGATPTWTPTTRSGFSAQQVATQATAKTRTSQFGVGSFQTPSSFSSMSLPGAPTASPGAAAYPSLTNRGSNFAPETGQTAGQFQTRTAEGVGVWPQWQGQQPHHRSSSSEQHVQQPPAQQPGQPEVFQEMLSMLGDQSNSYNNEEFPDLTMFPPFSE

B1: human AhR fused to Gal4 activating domain in pGADT7 (natural protein, UniProt P35869 1-848, looked up)
chain: MNSSSANITYASRKRRKPVQKTVKPIPAEGIKSNPSKRHRDRLNTELDRLASLLPFPQDVINKLDKLSVLRLSVSYLRAKSFFDVALKSSPTERNGGQDNCRAANFREGLNLQEGEFLLQALNGFVLVVTTDALVFYASSTIQDYLGFQQSDVIHQSVYELIHTEDRAEFQRQLHWALNPSQCTESGQGIEEATGLPQTVVCYNPDQIPPENSPLMERCFICRLRCLLDNSSGFLAMNFQGKLKYLHGQKKKGKDGSILPPQLALFAIATPLQPPSILEIRTKNFIFRTKHKLDFTPIGCDAKGRIVLGYTEAELCTRGSGYQFIHAADMLYCAESHIRMIKTGESGMIVFRLLTKNNRWTWVQSNARLLYKNGRPDYIIVTQRPLTDEEGTEHLRKRNTKLPFMFTTGEAVLYEATNPFPAIMDPLPLRTKNGTSGKDSATTSTLSKDSLNPSSLLAAMMQQDESIYLYPASSTSSTAPFENNFFNESMNECRNWQDNTAPMGNDTILKHEQIDQPQDVNSFAGGHPGLFQDSKNSDLYSIMKNLGIDFEDIRHMQNEKFFRNDFSGEVDFRDIDLTDEILTYVQDSLSKSPFIPSDYQQQQSLALNSSCMVQEHLHLEQQQQHHQKQVVVEPQQQLCQKMKHMQVNGMFENWNSNQFVPFNCPQQDPQQYNVFTDLHGISQEFPYKSEMDSMPYTQNFISCNQPVLPQHSKCTELDYPMGSFEPSPYPTTSSLEDFVTCLQLPENQKHGLNPQSAIITPQTCYAGAVSMYQCQPEPQHTHVGQMQYNPVLPGQQAFLNKFQNGVLNETYPAELNNINNTQTTTHLQPLHHPSEARPFPDLTSSGFL
notes: aryl-hydrocarbon receptor (AhR), human cDNA; also called pGAD-AhR; aryl-hydrocarbon receptor; source: yeast two-hybrid fusion, yeast strain Y187
In the case of B1, the “fold increase of two-hybrid reporter activity over pGBK-Arnt alone” value is reported as roughly 3 fold.
